We go through 37 sequences from the supplement of paper PMC7877785.

± gives the uncertainty stated by the source.

A short description of this data set: self-splicing fitness, log relative to wild type (ln ratio); higher = more splicing; Tetrahymena group I intron in knt gene, E. coli kanamycin selection, DiMSum; sequences stand for … in CUCUCU…GGAGGGAAAAGUUAUCAGGCAUGCACCUGGUAGCUAGUCUUUAAACCAAUAGAUUGCAUCGGUUUAAAAGGCAAGACCGUCAAAUUGCGGGAAAGGGGUCAACAGCCGUUCAGUACCAAGUCUCAGGGGAAACUUUGAGAUGGCCUUGCAAAGGGUAUGGUAAUAAGCUGACGGACAUGGUCCUAACCACGCAGCCAAGUCCUAAGUCAACAGAUCUUCUGUUGAUAUGGAUGCAGUUCACAGACUAAAUGUCGGUCGGGGAAGAUGUAUUCUUCUCAUAAGAUAUAGUCGGACCUCUCCUUAAUGGGAGCUAGCGGAUGAAGUGAUGCAACACUGGAGCCGCUGGGAACUAAUUUGUAUGCGAAAGUAUAUUGAUUAGUUUUGGAGUACUCGUGGUCG
The method in brief:
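Pooled colonies went to amplicon sequencing on an Illumina HiSeq 2500 after six replicate transformations. The plates were LB agar with 100 μg/mL carbenicillin, 50 μM IPTG and 0.2% rhamnose, with or without 25 μg/mL kanamycin, incubated overnight at 37°C or 30°C. The E. coli BL21(DE3) library had all eight P1ex-region intron nucleotides randomised, the intron placed in the knt kanamycin-resistance gene on pET-22b(+). DiMSum fitness is the error-weighted combination of replicate fold changes, kanamycin against none, normalised to wild type.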

UAGAAGCAAUAUUACGGAGA: the “self-splicing fitness (ln)” value reads like this: (30 °C) -3.26 ± 0.39; (37 °C) -2.46 ± 0.26.

On to UGGCAGCAAUAUUACGGAAU, for which the “self-splicing fitness (ln)” value (30 °C) was -2.54 ± 0.12 and the “self-splicing fitness (ln)” value (37 °C) is -1.22 ± 0.17.

Turning to UUGCAGCAAUAUUACGUGCA, the “self-splicing fitness (ln)” value is, setting by setting: (30 °C) -2.15 ± 0.13; (37 °C) -1.27 ± 0.12.

For CCGAAGCAAUAUUACGUGCC, the “self-splicing fitness (ln)” value (30 °C) is -2.83 ± 0.29 and the “self-splicing fitness (ln)” value (37 °C) is -2.64 ± 0.44.

For the sequence GGAAAGCAAUAUUACGGACC, the “self-splicing fitness (ln)” value is, setting by setting: (30 °C) -2.35 ± 0.36; (37 °C) -1.44 ± 0.41.

Consider AUCAAGCAAUAUUACGCUAG, for which the “self-splicing fitness (ln)” value (30 °C) was -2.76 ± 0.16 and the “self-splicing fitness (ln)” value (37 °C) is -1.03 ± 0.13.

As to GGUGAGCAAUAUUACGGCGA, the “self-splicing fitness (ln)” value runs as follows: (30 °C) -1.1 ± 0.12; (37 °C) -1.39 ± 0.14.

On to ACAUAGCAAUAUUACGAUGG, for which the “self-splicing fitness (ln)” value reads like this: (30 °C) -1.64 ± 0.088; (37 °C) -0.176 ± 0.11.

For the sequence CUCCAGCAAUAUUACGUGUG, the “self-splicing fitness (ln)” value was -2.17 ± 0.069 (30 °C) and -1.5 ± 0.08 (37 °C).

As for ACCCAGCAAUAUUACGUGCA, the “self-splicing fitness (ln)” value reads like this: (30 °C) -0.703 ± 0.067; (37 °C) -0.601 ± 0.072.

As to GAAUAGCAAUAUUACGAUUG, the “self-splicing fitness (ln)” value reads like this: (30 °C) -1.4 ± 0.1; (37 °C) -0.331 ± 0.13.

Take ACCGAGCAAUAUUACGCUUG: the “self-splicing fitness (ln)” value is -3.65 ± 0.21 (30 °C) and -2.17 ± 0.26 (37 °C).

As to AUCUAGCAAUAUUACGCUCU, the “self-splicing fitness (ln)” value runs as follows: (30 °C) -0.469 ± 0.11; (37 °C) -0.244 ± 0.12.

On to CGCAAGCAAUAUUACGGCCC, for which the “self-splicing fitness (ln)” value (30 °C) was -1.17 ± 0.24 and the “self-splicing fitness (ln)” value (37 °C) was -1.23 ± 0.26.

With GAGAAGCAAUAUUACGCGCG, the “self-splicing fitness (ln)” value (30 °C) was -0.394 ± 0.14 and the “self-splicing fitness (ln)” value (37 °C) came to 0.218 ± 0.16.

On to AUUCAGCAAUAUUACGCGAG, for which the “self-splicing fitness (ln)” value is, setting by setting: (30 °C) -0.677 ± 0.065; (37 °C) -0.126 ± 0.079.

Regarding CGAGAGCAAUAUUACGUUGG, the “self-splicing fitness (ln)” value runs as follows: (30 °C) -3.78 ± 0.3; (37 °C) -2.48 ± 0.22.

Turning to CUCUAGCAAUAUUACGAGCA, the “self-splicing fitness (ln)” value reads like this: (30 °C) -3.95 ± 0.33; (37 °C) -3.04 ± 0.23.

Consider AGCAAGCAAUAUUACGCGUU, for which the “self-splicing fitness (ln)” value is -2.89 ± 0.17 (30 °C) and -2.44 ± 0.19 (37 °C).

Consider CCUCAGCAAUAUUACGUGCG, for which the “self-splicing fitness (ln)” value (30 °C) was -2.51 ± 0.11 and the “self-splicing fitness (ln)” value (37 °C) is -1.71 ± 0.12.

For CACUAGCAAUAUUACGUGAC, the “self-splicing fitness (ln)” value was -2.12 ± 0.14 (30 °C) and -2.36 ± 0.19 (37 °C).

For the sequence CGCGAGCAAUAUUACGACGU, the “self-splicing fitness (ln)” value was -2.39 ± 0.33 (30 °C) and -1.08 ± 0.21 (37 °C).

On to GUUAAGCAAUAUUACGAGGA, for which the “self-splicing fitness (ln)” value is -1.5 ± 0.23 (30 °C) and -1.15 ± 0.39 (37 °C).

As for GUCCAGCAAUAUUACGUUCC, the “self-splicing fitness (ln)” value by setting is: (30 °C) -1.46 ± 0.083; (37 °C) -0.198 ± 0.1.

With GCCGAGCAAUAUUACGUAGG, the “self-splicing fitness (ln)” value runs as follows: (30 °C) -3.39 ± 0.21; (37 °C) -0.729 ± 0.25.

With ACGAAGCAAUAUUACGCAUU, the “self-splicing fitness (ln)” value (30 °C) is -3.42 ± 0.12 and the “self-splicing fitness (ln)” value (37 °C) was -1.95 ± 0.096.

For the sequence CACGAGCAAUAUUACGUAUC, the “self-splicing fitness (ln)” value runs as follows: (30 °C) -2.94 ± 0.38; (37 °C) -2.81 ± 0.36.

Turning to UACAAGCAAUAUUACGUAUG, the “self-splicing fitness (ln)” value was -3.68 ± 0.17 (30 °C) and -2.11 ± 0.14 (37 °C).

CUCUAGCAAUAUUACGCUUU: the “self-splicing fitness (ln)” value (30 °C) is -3.13 ± 0.28 and the “self-splicing fitness (ln)” value (37 °C) is -2.08 ± 0.22.

Take UUGAAGCAAUAUUACGACGG: the “self-splicing fitness (ln)” value (30 °C) was found to be 0.0862 ± 0.13 and the “self-splicing fitness (ln)” value (37 °C) was found to be 0.756 ± 0.17.

Take GGGGAGCAAUAUUACGAUCA: the “self-splicing fitness (ln)” value (30 °C) was -1.45 ± 0.18 and the “self-splicing fitness (ln)” value (37 °C) is -0.807 ± 0.19.

As to AUCUAGCAAUAUUACGGCGC, the “self-splicing fitness (ln)” value runs as follows: (30 °C) -0.932 ± 0.11; (37 °C) -0.0721 ± 0.14.

With CCUGAGCAAUAUUACGUUUC, the “self-splicing fitness (ln)” value is, setting by setting: (30 °C) -3.69 ± 0.25; (37 °C) -2.81 ± 0.28.

Turning to AUGAAGCAAUAUUACGGUGA, the “self-splicing fitness (ln)” value reads like this: (30 °C) -0.607 ± 0.069; (37 °C) 0.195 ± 0.096.

On to ACGUAGCAAUAUUACGUAUG, for which the “self-splicing fitness (ln)” value was -2.75 ± 0.18 (30 °C) and -3.33 ± 0.42 (37 °C).

Take UAUUAGCAAUAUUACGUUGG: the “self-splicing fitness (ln)” value is, setting by setting: (30 °C) -2.1 ± 0.21; (37 °C) -0.685 ± 0.18.

For UCCCAGCAAUAUUACGAAUG, the “self-splicing fitness (ln)” value is, setting by setting: (30 °C) -2.98 ± 0.15; (37 °C) -2.61 ± 0.17.
